Experimental data reported in US20220026415A1 (NATIONAL CANCER CENTER, published 2022).

Assays:
Experiment in all cases: immunoprecipitation with anti-RARRES1 antibody from RARRES1-transfected HEK293 cells with or without nocodazole, immunoblot
[1] = target: CDK2 (endogenous, HEK293 cells) (UniProt P24941 1-298)
Protocol: (§1) The cells were lysed in a lysis buffer (20 mM Tris, pH 7.4, 5 mM EDTA, 10 mM Na₄ P₂O₇, 100 mM NaF, 1% NP-40, 1 mM PMSF, 0.2% protease inhibitor cocktail and phosphatase inhibitor). The protein concentrations of the cell lysates were measured using a Pierce BCA Protein Assay kit (Pierce, Rockford, USA). Subsequently, protein lysates were resuspended in a loading buffer, boiled for 5 minutes, and then subjected to SDS-PAGE and immunoblotting with the indicated antibodies. For immunoprecipitation, a TAP buffer (25 mM Tris, pH 7.4, 140 mM NaCl, 0.5% NP-40, 10 mM NaF, 1 mM dithiothreitol (DTT), 1 mM phenylmethylsulphonyl fluoride, 1 mM EDTA, 1 mM Na₃VO₄, 1 mM β-glycerophosphate, 10% glycerol and 0.2% protease inhibitor cocktail and phosphatase inhibitor) was added to the cell lysates, and then the cell lysates were incubated along with a RARRES1 antibody (R & D System, MN, USA) or GST beads at 4° C. Protein expression was detected by chemiluminescence using the SuperSignal West Pico Chemiluminescent Substrate (Pierce).
(§2) In addition, it was examined whether RARRES1 interacted with other CDK-Cyclin complexes, including interphase CDKs (CDK2, CDK4, and CDK6) and their binding partner Cyclins, and immunoprecipitation according to Example 1-8 was performed on 293 cells under the same conditions as those in FIG. 7C.

[2] = target: Cyclin A (endogenous, HEK293 cells) (UniProt P20248 1-432, limits assumed)
Protocol: as §1, §2

[3] = target: CDK4 (endogenous, HEK293 cells) (UniProt P11802 2-303)
Protocol: as §1, §2

[4] = target: T1, Cyclin D (endogenous, HEK293 cells) (UniProt P24385 1-295, limits assumed)
T1 construct: Printed only as 'Cyclin D'; Cyclin D1 is inferred from the antibody list; also called Cyclin D1
Protocol: as §1, §2

Sequence of Cyclin A (endogenous, HEK293 cells) (P20248 whole entry): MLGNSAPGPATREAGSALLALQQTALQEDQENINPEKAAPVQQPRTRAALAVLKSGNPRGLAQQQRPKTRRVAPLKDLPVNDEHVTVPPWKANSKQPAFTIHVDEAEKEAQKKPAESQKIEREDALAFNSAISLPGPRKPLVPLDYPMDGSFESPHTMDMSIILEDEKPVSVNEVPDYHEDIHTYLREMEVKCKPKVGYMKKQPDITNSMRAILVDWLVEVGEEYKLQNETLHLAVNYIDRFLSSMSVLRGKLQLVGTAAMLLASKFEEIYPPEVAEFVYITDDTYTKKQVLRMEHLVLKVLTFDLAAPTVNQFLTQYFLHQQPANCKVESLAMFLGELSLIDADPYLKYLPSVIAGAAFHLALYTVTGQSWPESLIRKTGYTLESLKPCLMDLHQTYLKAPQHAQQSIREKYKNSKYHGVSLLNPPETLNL
Sequence of CDK4 (endogenous, HEK293 cells) (P11802 2-303 limits assumed): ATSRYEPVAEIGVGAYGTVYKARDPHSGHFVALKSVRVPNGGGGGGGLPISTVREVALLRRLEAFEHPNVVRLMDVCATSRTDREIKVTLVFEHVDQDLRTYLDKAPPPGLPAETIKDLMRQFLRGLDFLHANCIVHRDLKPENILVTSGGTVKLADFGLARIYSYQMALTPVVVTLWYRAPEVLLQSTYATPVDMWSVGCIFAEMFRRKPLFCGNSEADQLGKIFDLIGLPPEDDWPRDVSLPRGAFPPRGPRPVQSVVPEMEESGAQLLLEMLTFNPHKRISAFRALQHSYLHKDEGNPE
T1 sequence (P24385 whole entry): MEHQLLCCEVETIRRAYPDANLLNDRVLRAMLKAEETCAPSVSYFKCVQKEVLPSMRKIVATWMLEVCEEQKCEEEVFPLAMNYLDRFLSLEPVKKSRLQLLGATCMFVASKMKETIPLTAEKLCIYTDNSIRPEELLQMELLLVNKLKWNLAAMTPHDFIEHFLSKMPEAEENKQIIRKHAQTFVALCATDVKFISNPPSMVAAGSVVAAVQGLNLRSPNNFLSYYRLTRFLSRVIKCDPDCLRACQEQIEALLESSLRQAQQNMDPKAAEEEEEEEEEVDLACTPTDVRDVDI

binding result [1]: no binding
binding result [2]: no binding
binding result [3]: no binding
binding result [4]: no binding
B1: retinoic acid receptor responder 1 (RARRES1), isoform 1, wild type, overexpressed in HEK293 cells (other)
chain: MQPRRQRLPAPWSGPRGPRPTAPLLALLLLLAPVAAPAGSGDPDDPGQPQDAGVPRRLLQQAARAALHFFNFRSGSPSALRVLAEVQEGRAWINPKEGCKVHVVFSTERYNPESLLQEGEGRLGKCSARVFFKNQKPRPTINVTCTRLIEKKKRQQEDYLLYKQMKQLKNPLEIVSIPDNHGHIDPSLRLIWDLAFLGSSYVMWEMTTQVSHYYLAQLTSVRQWKTNDDTIDFDYTVLLHELSTQEIIPCRIHLVWYPGKPLKVKYHCQELQTPEEASGTEEGSAVVPTELSNF
notes: also called RARRES1-1
